Assay results published in patent US7998940B2, “Aptamers to von Willebrand factor and their use as thrombotic disease therapeutics” (Archemix Corp., priority 2004, dated 2011).
Positions count from the first letter of the chain named. Oligonucleotides are written 5' to 3', each unit as a sugar letter and its base; * is a phosphorothioate linkage, no mark a phosphodiester; rarer units and linkages stand in square brackets, end groups in braces. Plain capitals give the bases only. d = 2'-deoxy (DNA); r = 2'-OH (RNA)

B1: AMX200.G11: DNA SELEX 1 aptamer clone (nucleic acid)
DNA: CTACCTACGATCTGACTAGCGGAACGAGAATGCTGATGGATTGCTCAGGTCTGCTGGCTGCTTACTCTCATGTAGTTCC
modifications: DNA, backbone not given here
notes: DNA SELEX 1 aptamer clone
B2: AMX200.D11: DNA SELEX 1 aptamer clone (nucleic acid)
DNA: B1 DNA with C25T, G26A
modifications: DNA, backbone not given here
notes: DNA SELEX 1 aptamer clone
B3: AMX200.D8: DNA SELEX 1 aptamer clone (nucleic acid)
DNA: B1 DNA with C25T, C33T
modifications: DNA, backbone not given here
notes: DNA SELEX 1 aptamer clone
B4: AMX200.A7: DNA SELEX 1 aptamer clone (nucleic acid)
DNA: B1 DNA with C25T, C44T
modifications: DNA, backbone not given here
notes: DNA SELEX 1 aptamer clone
B5: AMX200.B9: DNA SELEX 1 aptamer clone (nucleic acid)
DNA: B1 DNA with C25T, G57A
modifications: DNA, backbone not given here
notes: DNA SELEX 1 aptamer clone
B6: AMX200.B1: DNA SELEX 1 aptamer clone (nucleic acid)
DNA: B1 DNA with C25T, T45C
modifications: DNA, backbone not given here
notes: DNA SELEX 1 aptamer clone
B7: AMX200.B8: DNA SELEX 1 aptamer clone (nucleic acid)
DNA: B1 DNA with C25T, C33T, A36G
modifications: DNA, backbone not given here
notes: DNA SELEX 1 aptamer clone
B8: AMX200.D1: DNA SELEX 1 aptamer clone (nucleic acid)
DNA: B1 DNA with C25T, A30G, G53A
modifications: DNA, backbone not given here
notes: DNA SELEX 1 aptamer clone
B9: AMX200.F9: DNA SELEX 1 aptamer clone (nucleic acid)
DNA: B1 DNA with C25T, A29G, C44G
modifications: DNA, backbone not given here
notes: DNA SELEX 1 aptamer clone
B10: AMX200.E8: DNA SELEX 1 aptamer clone (nucleic acid)
DNA: B1 DNA with C25T, A29G, A36G, C54T
modifications: DNA, backbone not given here
notes: DNA SELEX 1 aptamer clone
B11: AMX199.F10: DNA SELEX 1 aptamer clone (nucleic acid)
DNA: CTACCTACGATCTGACTAGCGAAACACTAGGTTGGTTAGGATTGGTGTGTTTCCGTTCTGCTTACTCTCATGTAGTTCC
modifications: DNA, backbone not given here
notes: DNA SELEX 1 aptamer clone
B12: AMX199.F6: DNA SELEX 1 aptamer clone (nucleic acid)
DNA: B11 DNA with T52C, T56C
modifications: DNA, backbone not given here
notes: DNA SELEX 1 aptamer clone
B13: AMX199.G5: DNA SELEX 1 aptamer clone (nucleic acid)
DNA: B11 DNA with T52C, T56C, T57C
modifications: DNA, backbone not given here
notes: DNA SELEX 1 aptamer clone
B14: AMX199.F11: DNA SELEX 1 aptamer clone (nucleic acid)
DNA: B11 DNA with C54T, T56C
modifications: DNA, backbone not given here
notes: DNA SELEX 1 aptamer clone
B15: AMX199.H7: DNA SELEX 1 aptamer clone (nucleic acid)
DNA: B11 DNA with T56C, C58T
modifications: DNA, backbone not given here
notes: DNA SELEX 1 aptamer clone
B16: AMX199.A10: DNA SELEX 1 aptamer clone (nucleic acid)
DNA: B11 DNA with A22G, T52C, C58T
modifications: DNA, backbone not given here
notes: DNA SELEX 1 aptamer clone
B17: AMX199.G1: DNA SELEX 1 aptamer clone (nucleic acid)
DNA: B11 DNA with T52C, T56C, C58T
modifications: DNA, backbone not given here
notes: DNA SELEX 1 aptamer clone
B18: AMX199.F1: DNA SELEX 1 aptamer clone (nucleic acid)
DNA: B11 DNA with T52C, T56C, C58A
modifications: DNA, backbone not given here
notes: DNA SELEX 1 aptamer clone
B19: AMX199.G4: DNA SELEX 1 aptamer clone (nucleic acid)
DNA: B11 DNA with T52C, T56C, C58A
modifications: DNA, backbone not given here
notes: DNA SELEX 1 aptamer clone
B20: AMX200.A11: DNA SELEX 1 aptamer clone (nucleic acid)
DNA: CTACCTACGATCTGACTAGCTGAGTAGTTAGTAACTTTTTATTATGGTTTGGTGGGTCTGGCTTACTCTCATGTAGTTCC
modifications: DNA, backbone not given here
notes: DNA SELEX 1 aptamer clone
B21: AMX200.H8: DNA SELEX 1 aptamer clone (nucleic acid)
DNA: B20 DNA with T29C, C35T, T57C
modifications: DNA, backbone not given here
notes: DNA SELEX 1 aptamer clone
B22: AMX199.F8: DNA SELEX 1 aptamer clone (nucleic acid)
DNA: CTACCTACGATCTGACTAGCAAGGGGATTGGCTCCGGGTCTGGCGTGCTTGGCACCTCTGGCTTACTCTCATGTAGTTCC
modifications: DNA, backbone not given here
notes: DNA SELEX 1 aptamer clone
B23: AMX199.B6: DNA SELEX 1 aptamer clone (nucleic acid)
DNA: B22 DNA with C53T, T59C
modifications: DNA, backbone not given here
notes: DNA SELEX 1 aptamer clone
B24: AMX199.D8: DNA SELEX 1 aptamer clone (nucleic acid)
DNA: B22 DNA with C55T, C58T, T59C
modifications: DNA, backbone not given here
notes: DNA SELEX 1 aptamer clone
B25: AMX203.A6: rRdY aptamer clone (nucleic acid)
chain: rGrGrArGdCrGdCrAdCdTdCrArGdCdCrAdCdCrAdCrGrGrGrGrAdCrGrGrGdTrArGrGrGdCrGrGrGdCrGrArGrGdTrGrGdTrGrGdCrAdTdTrArGdCrGdTdTdTdCrGrAdCdCdTdCdTdCdTrGdCdTrArGdC
B26: AMX203.F9: rRdY aptamer clone (nucleic acid)
chain: rGrGrArGdCrGdCrAdCdTdCrArGdCdCrAdCdTrGrArArGrGrGdTrArArGrGrAdCrGrArGrGrArGrGrGdTrAdTrAdCrArGdTrGdTrGdCrGdCrGdTrGdTrAdTdTdTdCrGrAdCdCdTdCdTdCdTrGdCdTrArGdC
B27: AMX205.G9: rRdY aptamer clone (nucleic acid)
chain: rGrGrArGdCrGdCrAdCdTdCrArGdCdCrAdCrArAdCdTrGrGdTdTrGdTdCrGrGdTrGrAdTrGrGdCrAdTdTrArAdCrGdCrGrGrAdCdCrArGrGdCrAdTrGdTdTdTdCrGrAdCdCdTdCdTdCdTrGdCdTrArGdC

What follows are molecules tested against human vWF A1 domain (SEQ ID NO 5) (Homo sapiens, UniProt P04275, T1381A) (assay: 3-point dot blot screen, human vWF A1 domain). Details: DNA SELEX 1 aptamers; 100 nM human vWF A1 domain; ratio of fraction bound with target to without.
human vWF A1 domain (SEQ ID NO 5), sequence (P04275 with tags, fused parts or gaps T1381A): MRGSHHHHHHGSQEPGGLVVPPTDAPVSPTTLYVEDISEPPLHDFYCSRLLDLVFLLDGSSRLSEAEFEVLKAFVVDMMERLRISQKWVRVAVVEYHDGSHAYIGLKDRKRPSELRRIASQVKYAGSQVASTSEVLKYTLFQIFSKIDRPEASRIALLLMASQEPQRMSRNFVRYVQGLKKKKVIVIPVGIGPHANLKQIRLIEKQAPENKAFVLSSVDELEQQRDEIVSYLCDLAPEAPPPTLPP
Assay type: binding
Description: (§1) When a significant positive ratio of binding of RNA in the presence of human or rabbit vWF A1 domain versus in the absence of protein was seen, the pools were cloned using the TOPO TA cloning kit (Invitrogen, Cat. #45-0641, Carlsbad, Calif.) according to the manufacturer's instructions. Round 9 and 12 pool templates were cloned and sequenced (125 total sequences), producing 48 unique clones. All unique clones were transcribed, desalted, 5-^32P end-labeled, and assayed in a 3-point dot blot screen (no protein target control, 100 nM human vWF A1 domain (SEQ ID NO 5, FIG. 3), or 100 nM rabbit vWF A1 domain (SEQ ID NO 6, FIG. 3). The data is presented in the third and fourth columns of Table 4 below as the ratio of the fraction of the aptamer bound to the nitrocellulose in the presence of the target protein to the fraction of aptamer bound in the absence of the target protein.
(§2) When a significant positive ratio of binding of RNA in the presence of human or rabbit vWF A1 domain (SEQ ID NOS 4 and 6, respectively) versus in the absence of protein was seen, the pools were cloned using the TOPO TA cloning kit (Invitrogen Cat. #45-0641, Carlsbad, Calif.) according to the manufacturer's instructions. Round 9 and 12 pool templates were cloned and sequenced (185 total sequences), producing 78 unique clones within 3 sequence families. All unique clones were transcribed, desalted, 5-^32P end-labeled, and assayed in a 3-point dot blot screen (no protein target control, 100 nM human vWF A1 domain (SEQ ID NO 5), or 100 nM rabbit vWF A1 domain (SEQ ID NO 6). The data are presented in the third and fourth columns of Table 9 below as the ratio of the fraction of the aptamer bound to the nitrocellulose in the presence of the target protein to the fraction of aptamer bound in the absence of the target protein. Of the three sequence families, members of Family #1 and #2 and two individual, non-family aptamers, bound to both human vWF domain A1 (SEQ ID NO 5) and rabbit vWF domain A1 (SEQ ID NO 6).
(§3) All unique clones were assayed in a 3-point dot blot screen (no protein target control, 100 nM human vWF A1 domain (SEQ ID NO 5), or 100 nM rabbit vWF A1 domain (SEQ ID NO 6). The data are presented in the third and fourth columns of Table 14 below as the ratio of the fraction of the aptamer bound to the nitrocellulose in the presence of the target protein to the fraction of aptamer bound in the absence of the target protein.
For B1, the “Screen- Human/No Protein” value was 1.73. With B2 the “Screen- Human/No Protein” value was 3.34. In the case of B3, the “Screen- Human/No Protein” value is reported as 2.86. With B4 the “Screen- Human/No Protein” value was 0.97. B5 was tested, and the “Screen- Human/No Protein” value was 2.54. In the case of B6, the “Screen- Human/No Protein” value is reported as 4.01. B7 was tested, and the “Screen- Human/No Protein” value was 4.13. In the case of B8, the “Screen- Human/No Protein” value is reported as 1.26. B9 was tested, and the “Screen- Human/No Protein” value was 0.97. In the case of B10, the “Screen- Human/No Protein” value is reported as 1.04. With B11 the “Screen- Human/No Protein” value was 1.17. B12 was tested, and the “Screen- Human/No Protein” value was 1.37. For B13, the “Screen- Human/No Protein” value was 1.41. In the case of B14, the “Screen- Human/No Protein” value is reported as 1.44. B15 was tested, and the “Screen- Human/No Protein” value was 1.32. With B16 the “Screen- Human/No Protein” value was 1.25. With B17 the “Screen- Human/No Protein” value was 1.19. B18 was tested, and the “Screen- Human/No Protein” value was 1.32. In the case of B19, the “Screen- Human/No Protein” value is reported as 1.19. For B20, the “Screen- Human/No Protein” value was 1.49. In the case of B21, the “Screen- Human/No Protein” value is reported as 1.86. In the case of B22, the “Screen- Human/No Protein” value is reported as 1.78. In the case of B23, the “Screen- Human/No Protein” value is reported as 2.01. In the case of B24, the “Screen- Human/No Protein” value is reported as 1.89.

Same assay, conditions: rRdY aptamers; 100 nM human vWF A1 domain; ratio of fraction bound with target to without
In the case of B25, the “Screen- Human/No Protein” value is reported as 1.16. B26 was tested, and the “Screen- Human/No Protein” value was 1.45. B27 was tested, and the “Screen- Human/No Protein” value was 1.30.

Each molecule was assayed on rabbit vWF A1 domain (SEQ ID NO 6) (assay: 3-point dot blot screen, rabbit vWF A1 domain). Details: DNA SELEX 1 aptamers; 100 nM rabbit vWF A1 domain; ratio of fraction bound with target to without.
rabbit vWF A1 domain (SEQ ID NO 6), sequence (as listed by the source): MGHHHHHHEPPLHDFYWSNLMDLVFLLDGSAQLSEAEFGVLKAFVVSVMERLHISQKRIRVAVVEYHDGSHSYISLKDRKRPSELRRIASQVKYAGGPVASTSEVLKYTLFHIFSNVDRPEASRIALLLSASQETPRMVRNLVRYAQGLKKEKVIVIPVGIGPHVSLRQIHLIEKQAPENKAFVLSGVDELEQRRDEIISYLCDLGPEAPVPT
Assay type: binding
Description: as §1, §2, §3
When a significant positive ratio of binding of DNA in the presence of human or rabbit vWF A1 domain versus in the absence of protein was seen, the pools were cloned using the TOPO TA cloning kit (Invitrogen Cat. #45-0641, Carlsbad, Calif.) according to the manufacturer's instructions. Round 7 and 11 pool templates were cloned and sequenced (218 total sequences), producing 146 unique clones within 12 sequence families of which sequences from six families show vWF target binding activity. All unique clones were assayed twice in a 3-point dot blot screen (no protein target control, 20 nM full length human vWF (Calbiochem Cat. #681300, La Jolla, Calif.), or 20 nM rabbit vWF A1 domain. The data is presented in the third and fourth columns of Table 17 below as the ratio of the fraction of the aptamer bound to the nitrocellulose in the presence of the target protein to the fraction of aptamer bound in the absence of the target protein.
With B1 the “Screen- Rabbit/No Protein” value was 1.28. For B2, the “Screen- Rabbit/No Protein” value was 2.04. With B3 the “Screen- Rabbit/No Protein” value was 1.61. With B4 the “Screen- Rabbit/No Protein” value was 0.96. B5 was tested, and the “Screen- Rabbit/No Protein” value was 2.06. In the case of B6, the “Screen- Rabbit/No Protein” value is reported as 3.01. In the case of B7, the “Screen- Rabbit/No Protein” value is reported as 3.13. In the case of B8, the “Screen- Rabbit/No Protein” value is reported as 1.06. With B9 the “Screen- Rabbit/No Protein” value was 0.99. In the case of B10, the “Screen- Rabbit/No Protein” value is reported as 1.03. For B11, the “Screen- Rabbit/No Protein” value was 1.24. In the case of B12, the “Screen- Rabbit/No Protein” value is reported as 1.30. With B13 the “Screen- Rabbit/No Protein” value was 1.34. In the case of B14, the “Screen- Rabbit/No Protein” value is reported as 1.35. B15 was tested, and the “Screen- Rabbit/No Protein” value was 1.14. With B16 the “Screen- Rabbit/No Protein” value was 1.29. B17 was tested, and the “Screen- Rabbit/No Protein” value was 1.26. B18 was tested, and the “Screen- Rabbit/No Protein” value was 1.36. For B19, the “Screen- Rabbit/No Protein” value was 1.11. In the case of B20, the “Screen- Rabbit/No Protein” value is reported as 1.19. With B21 the “Screen- Rabbit/No Protein” value was 1.27. B22 was tested, and the “Screen- Rabbit/No Protein” value was 1.79. With B23 the “Screen- Rabbit/No Protein” value was 1.91. B24 was tested, and the “Screen- Rabbit/No Protein” value was 2.00.

Same assay, conditions: rRdY aptamers; 100 nM rabbit vWF A1 domain; ratio of fraction bound with target to without
With B25 the “Screen- Rabbit/No Protein” value was 1.16. B26 was tested, and the “Screen- Rabbit/No Protein” value was 1.29. For B27, the “Screen- Rabbit/No Protein” value was 1.73.
